The target of assay [1] is CD3 on the cell surface of Jurkat E6.1 cells (UniProt P07766). Nature of the assay: flow cytometry on Jurkat E6.1 cells, 1 nM antibody, anti-IgG1-PE; negative control. (Flow cytometry measures light scatter and fluorescence of single cells or particles in a stream.)
Assay [2] has the same target. Briefly: flow cytometry on Jurkat E6.1 cells, 3.16 nM antibody, anti-IgG1-PE; negative control.
The target is the same in assay [3]. Briefly: flow cytometry on Jurkat E6.1 cells, 0.32 nM antibody, anti-IgG1-PE; negative control.
The target is the same in assay [4]. Nature of the assay: flow cytometry on Jurkat E6.1 cells, 100 nM antibody, anti-IgG1-PE; negative control.
Assay [5] shares this target. Nature of the assay: flow cytometry on Jurkat E6.1 cells, 31.6 nM antibody, anti-IgG1-PE; negative control.
Assay [6] shares this target. Briefly: flow cytometry on Jurkat E6.1 cells, 1000 nM antibody, anti-IgG1-PE; negative control.
Assay [7] shares this target. Briefly: flow cytometry on Jurkat E6.1 cells, 10 nM antibody, anti-IgG1-PE; negative control.
Assay [8] has the same target. Nature of the assay: flow cytometry on Jurkat E6.1 cells, 316 nM antibody, anti-IgG1-PE; negative control.
The target of assay [9] is FcRn receptor. Nature of the assay: SPR (Biacore T200), FcRn on CM5 chip, steady state analysis, pH 6.0; pH 6.0.
Chain of FcRn receptor (P55899 24-297, chain 1 of 2): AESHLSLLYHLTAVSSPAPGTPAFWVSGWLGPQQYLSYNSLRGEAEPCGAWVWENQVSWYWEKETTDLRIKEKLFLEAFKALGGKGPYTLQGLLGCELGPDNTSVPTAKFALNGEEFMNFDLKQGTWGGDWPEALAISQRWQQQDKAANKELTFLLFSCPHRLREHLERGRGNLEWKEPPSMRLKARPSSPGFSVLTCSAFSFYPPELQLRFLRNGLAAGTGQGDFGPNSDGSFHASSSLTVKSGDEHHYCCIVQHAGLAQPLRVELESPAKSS
Chain of FcRn receptor (P61769 21-119, chain 2 of 2, further chain): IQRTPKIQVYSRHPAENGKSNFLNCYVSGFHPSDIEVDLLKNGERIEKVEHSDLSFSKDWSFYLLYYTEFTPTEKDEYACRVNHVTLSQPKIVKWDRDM

Chain of CD3 on the cell surface of Jurkat E6.1 cells (P07766 23-207): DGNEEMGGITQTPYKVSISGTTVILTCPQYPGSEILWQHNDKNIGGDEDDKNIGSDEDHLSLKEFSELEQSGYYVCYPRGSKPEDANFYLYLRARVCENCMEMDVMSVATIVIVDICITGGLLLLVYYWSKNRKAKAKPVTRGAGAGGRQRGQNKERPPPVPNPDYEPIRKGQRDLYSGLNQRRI

With Rituximab (antibody), the median fluorescence intensity in [1] is 56.5; in assay [2], 55.4; in assay [3], 58.3; in assay [4], 55.5; in assay [5], 58.7; in assay [6], 66.4. The figures for the median fluorescence intensity in [7] and in assay [8] were 60.8 and 55, respectively.

As usually defined, the Kd is the equilibrium constant for the complex coming apart. Low values mean a tighter complex, high ones a looser complex. Turning to Irrelevant IgG1 WT (antibody), in assay [9], the Kd turned out to be 1740 nM.
